# According to article PMC11813584, “An odorant-binding protein functions in fire ant social immunity interfacing with innate immunity” (Open Biology, 2025):
# Target: T1, SiOBP15, purified, His-tag removed (Solenopsis invicta)
# T1 construct: the ORF cloned into pET28a; also called purified SiOBP15; SiOBP15 protein (ligand); source: E. coli BL21, purified (Ni-Sepharose Cl-6B agarose), His-tag removed by protease cleavage
# Test: SPR; open SPR; SiOBP15 coupled to a COOH chip until saturation, SiApoLp-III or SiFABP5 titrated as analyte; one-to-one model (TraceDrawer)
# Details: both partners purified
binder,measurement,value
"SiApoLp-III, purified, His-tag removed (natural protein) EQSGTQPQLSDYIRDAQTAISSLGTQIQEHLNLPNQEELANTFKEQSTNFANNVQAYLQNITDEVKAKSPELEDFWTNMKTKLSEAVDNLHINPETTEQVNQLRAKFQEGVQTLVTESENAAKTISENSGKVQESIAKITKQAIDIAVKASQNLNQQLQQATTPQP",Kd,713 nM
